# Laboratory results published in patent US20240294593A1 (Genentech, published 2024).
# Changes are numbered by the printed parent chain. Names may count otherwise.
# B1: mAb C[PD1]_H1.177_L1.140 (bivalent IgG1) (antibody, V domains shown)
# VH: EVQLVESGGGLVQPGGSLRLSCAASGFTFSSLGMHWVRQAPGKGLEWVSYISGGSSIIYYADSVKGRFTISRDNAKNSLYLQMNSLRAEDTAVYYCARGGRLVFSPDYWGQGTLVTVSS
# VL: DIVMTQSPDSLAVSLGERATINCKSSQSLLHSGNQYNYLTWYQQKPGQPPKLLIYWASTRESGVPDRFTGSGSGTDFTLTISSLQAEDVAVYYCQNDYTYPFTFGSGTKLEIKR
# notes: Bivalent IgG1 format with E233P/L234V/L235A/G236_/S267K; copies: 2 + 2
# B2: H1.183_L1.140 (XENP32429) (antibody, V domains shown)
# VH: B1 VH with R101V
# VL: B1 VL
# notes: VH-F34L/S55G/R109V/W112F, VL-N31H/K36Y/S99T (Xencor #); Kabat positions VH-32/52A/97/100, VL-27D/30/93; also called mAb C[PD-1]_H1.183_L1.140; copies: 2 + 2
# B3: H1.207_L1.1 (XENP32823) (antibody, human IgG1, kappa, V domains shown)
# VH: B1 VH with L32F, G53S, S105T
# VL: B1 VL with Y36K, T99S
# notes: VH substitution W112F/S113T (Xencor #); W100F/S100aT (Kabat); also called mAb C[PD1]_H1.207_L1.1_IgG1_PVA_/S267K
# B4: H1.206_L1.1 (XENP32822) (antibody, human IgG1, kappa, V domains shown)
# VH: B1 VH with L32F, G53S, F104L
# VL: B1 VL with Y36K, T99S
# notes: VH substitution W112L (Xencor #) but W100F in the Kabat column: the two columns disagree; also called mAb C[PD1]_H1.206_L1.1_IgG1_PVA_/S267K
# B5: H1.208_L1.1 (XENP32824) (antibody, human IgG1, kappa, V domains shown)
# VH: B1 VH with L32F, G53S, L102S
# VL: B1 VL with Y36K, T99S
# notes: VH substitution L110S/W112F (Xencor #); L98S/SW100F (Kabat); also called mAb C[PD1]_H1.208_L1.1_IgG1_PVA_/S267K
# B6: H1.210_L1.1 (XENP32826) (antibody, human IgG1, kappa, V domains shown)
# VH: B1 VH with L32F, G53S, R101W, L102H
# VL: B1 VL with Y36K, T99S
# notes: VH substitution R109W/L110H/W112F (Xencor #); R97W/L98H/W100F (Kabat); also called mAb C[PD1]_H1.210_L1.1_IgG1_PVA_/S267K
# B7: H1.209_L1.1 (XENP32825) (antibody, human IgG1, kappa, V domains shown)
# VH: B1 VH with L32F, G53S, L102F
# VL: B1 VL with Y36K, T99S
# notes: VH substitution L110F/W112F (Xencor #); L98F/W100F (Kabat); also called mAb C[PD1]_H1.209_L1.1_IgG1_PVA_/S267K
# B8: H1.212_L1.1 (XENP32828) (antibody, human IgG1, kappa, V domains shown)
# VH: B1 VH with L32F, G53S, R101T, L102K
# VL: B1 VL with Y36K, T99S
# notes: VH substitution R109T/L110K/W112F (Xencor #); R97T/L98K/W100F (Kabat); also called mAb C[PD1]_H1.212_L1.1_IgG1_PVA_/S267K
# B9: H1.205_L1.1 (XENP32821) (antibody, human IgG1, kappa, V domains shown)
# VH: B1 VH with L32F, G53S, R101K, S105A
# VL: B1 VL with Y36K, T99S
# notes: VH substitution R109K/W112F/S113A (Xencor #); R97K/W100F/S100aA (Kabat); also called mAb C[PD1]_H1.205_L1.1_IgG1_PVA_/S267K
# B10: H1.211_L1.1 (XENP32827) (antibody, human IgG1, kappa, V domains shown)
# VH: B1 VH with L32F, G53S, S105A
# VL: B1 VL with Y36K, T99S
# notes: VH substitution W112F/S113A (Xencor #); W100F/S100aA (Kabat); also called mAb C[PD1]_H1.211_L1.1_IgG1_PVA_/S267K
# B11: H1.214_L1.1 (XENP32830) (antibody, human IgG1, kappa, V domains shown)
# VH: B1 VH with L32F, G53S, R101L, V103I, F104L
# VL: B1 VL with Y36K, T99S
# notes: VH substitution R109L/V111I/W112L (Xencor #) but R97L/V99I/W100F in the Kabat column: the two columns disagree; also called mAb C[PD1]_H1.214_L1.1_IgG1_PVA_/S267K
# B12: H1.217_L1.1 (XENP32833) (antibody, human IgG1, kappa, V domains shown)
# VH: B1 VH with L32F, G53S, V103S
# VL: B1 VL with Y36K, T99S
# notes: VH substitution V111S/W112F (Xencor #); V99S/W100F (Kabat); also called mAb C[PD1]_H1.217_L1.1_IgG1_PVA_/S267K
# B13: H1.215_L1.1 (XENP32831) (antibody, human IgG1, kappa, V domains shown)
# VH: B1 VH with L32F, G53S, G100A
# VL: B1 VL with Y36K, T99S
# notes: VH substitution G108A/W112F (Xencor #); G96A/W100F (Kabat); also called mAb C[PD1]_H1.215_L1.1_IgG1_PVA_/S267K
# B14: H1.219_L1.1 (XENP32835) (antibody, human IgG1, kappa, V domains shown)
# VH: B1 VH with L32F, G53S, R101S, V103Y, F104L
# VL: B1 VL with Y36K, T99S
# notes: VH substitution R109S/V111Y/W112L (Xencor #) but R97S/V99Y/W100F in the Kabat column: the two columns disagree; also called mAb C[PD1]_H1.219_L1.1_IgG1_PVA_/S267K
# B15: H1.218_L1.1 (XENP32834) (antibody, human IgG1, kappa, V domains shown)
# VH: B1 VH with L32F, G53S, L102Q, S105T
# VL: B1 VL with Y36K, T99S
# notes: VH substitution L110Q/W112F/S113T (Xencor #); L98Q/W100F/S100aT (Kabat); also called mAb C[PD1]_H1.218_L1.1_IgG1_PVA_/S267K
# B16: H1.213_L1.1 (XENP32829) (antibody, human IgG1, kappa, V domains shown)
# VH: B1 VH with L32F, G53S, L102S, V103I
# VL: B1 VL with Y36K, T99S
# notes: VH substitution L110S/V111I/W112F (Xencor #); L98S/V99I/W100F (Kabat); also called mAb C[PD1]_H1.213_L1.1_IgG1_PVA_/S267K
# B17: H1.216_L1.1 (XENP32832) (antibody, human IgG1, kappa, V domains shown)
# VH: B1 VH with L32F, G53S, R101S, L102V, V103L
# VL: B1 VL with Y36K, T99S
# notes: VH substitution R109S/L110V/V111L/W112F (Xencor #); R97S/L98V/V99L/W100F (Kabat); also called mAb C[PD1]_H1.216_L1.1_IgG1_PVA_/S267K
# Target: T1, human PD-1-His (human, UniProt Q15116 25-167, limits assumed)
# T1 construct: Antigen of the Octet assays; not shown: His tag
# T1 sequence (Q15116 25-167 limits assumed): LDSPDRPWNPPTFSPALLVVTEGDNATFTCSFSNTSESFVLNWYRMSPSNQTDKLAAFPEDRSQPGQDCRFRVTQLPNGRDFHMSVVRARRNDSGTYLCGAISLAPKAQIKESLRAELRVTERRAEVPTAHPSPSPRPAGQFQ
# Assay: Octet (BLI), bivalent IgG1 mAb
koff [s⁻¹],kon [M⁻¹ s⁻¹],Binder
0.00022,138000,B1
0.000178,187000,B2

# Target: T1, human PD-1-His
# Assay: Octet (BLI), AHC capture of the bivalent mAb, PD-1 in solution
koff [s⁻¹],kon [M⁻¹ s⁻¹],Binder
0.00151,73600,B3
0.00505,148000,B4
0.00509,77700,B5
0.00244,154000,B6
0.00489,173000,B7
0.00469,152000,B8
0.00296,111000,B9
0.00252,133000,B10

# Target: T1, human PD-1-His
# Assay: as above
# Remark: another data set of the same source
# Description: (§1) In particular, anti-human IgG-Fc (AHC) biosensors were used to capture the test articles and dipped into multiple concentrations of PD-1.
koff [s⁻¹],kon [M⁻¹ s⁻¹],Binder
0.0061,166000,B11
0.023,143000,B12
0.00482,107000,B13
0.00489,197000,B14
0.0013,66500,B15
0.0029,105000,B16
0.00218,193000,B17

# Target: T1, human PD-1-His
# Assay: Octet (BLI), bivalent IgG1 mAb; legend calls the constant apparent (KDapp)
row,Kd [µM],Binder
1,0.0016,B1
2,0.000952,B2

# Target: T1, human PD-1-His
# Assay: Octet (BLI), AHC biosensors capture the bivalent mAb, dipped into multiple concentrations of PD-1; KDapp per legend
row,Kd [µM],Binder
1,0.0205,B3
2,0.0342,B4
3,0.0655,B5
4,0.0159,B6
5,0.0282,B7
6,0.0308,B8
7,0.0268,B9
8,0.019,B10

# Target: T1, human PD-1-His
# Assay: as above
# Remark: another data set of the same source
# Description: as §1
row,Kd [µM],Binder
1,0.0367,B11
2,0.161,B12
3,0.0449,B13
4,0.0248,B14
5,0.0196,B15
6,0.0276,B16
7,0.0114,B17
